Data reported in the supplement of paper PMC10065799, “High-throughput profiling of sequence recognition by tyrosine kinases and SH2 domains using bacterial peptide display” (eLife, 2023).

Experiments:
AncSZ = test: phosphorylation enrichment, bacterial display (enrichment ratio); higher = better substrate or ligand; peptides without Tyr show the background
EPHB1 = EPHB1 (UniProt P54762); test: as above
EPHB2 = EPHB2 (UniProt P29323); test: as above
FGFR1 = FGFR1 (UniProt P11362); test: as above
FGFR3 = FGFR3 (UniProt P22607); test: as above
Fer (mouse) = test: as above
Fes = Fes (UniProt P07332); test: as above
Fyn = Fyn (UniProt P06241); test: as above
Hck = Hck (UniProt P08631); test: as above
Jak2 = Jak2 (UniProt O60674); test: as above
MERTK = MERTK (UniProt Q12866); test: as above
c-Abl (mouse) = test: as above
c-Src = test: as above
Grb2 SH2 = Grb2 SH2 (UniProt P62993); test: SH2 binding enrichment of the phosphorylated peptide, bacterial display (enrichment ratio); higher = better substrate or ligand; peptides without Tyr show the background
SHP2-C SH2 = test: as above
c-Src SH2 = test: as above
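For SH2 binding enrichment of the phosphorylated peptide, bacterial display in this document: peptide library displayed on the E. coli surface as eCPX fusions, selected cells deep-sequenced, score is each peptide's frequency after selection divided by its frequency in the input.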
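For phosphorylation enrichment, bacterial display in this document: 11-residue human phosphosite peptides and single-mutation variants displayed on the E. coli surface, counted by deep sequencing, each peptide's frequency after selection divided by its frequency in the unselected input library; frequency after pTyr selection over input frequency; kinase dosed for 20-30% of maximal phosphorylation in three min.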

Sequence of Fes (P07332 whole entry, looked up): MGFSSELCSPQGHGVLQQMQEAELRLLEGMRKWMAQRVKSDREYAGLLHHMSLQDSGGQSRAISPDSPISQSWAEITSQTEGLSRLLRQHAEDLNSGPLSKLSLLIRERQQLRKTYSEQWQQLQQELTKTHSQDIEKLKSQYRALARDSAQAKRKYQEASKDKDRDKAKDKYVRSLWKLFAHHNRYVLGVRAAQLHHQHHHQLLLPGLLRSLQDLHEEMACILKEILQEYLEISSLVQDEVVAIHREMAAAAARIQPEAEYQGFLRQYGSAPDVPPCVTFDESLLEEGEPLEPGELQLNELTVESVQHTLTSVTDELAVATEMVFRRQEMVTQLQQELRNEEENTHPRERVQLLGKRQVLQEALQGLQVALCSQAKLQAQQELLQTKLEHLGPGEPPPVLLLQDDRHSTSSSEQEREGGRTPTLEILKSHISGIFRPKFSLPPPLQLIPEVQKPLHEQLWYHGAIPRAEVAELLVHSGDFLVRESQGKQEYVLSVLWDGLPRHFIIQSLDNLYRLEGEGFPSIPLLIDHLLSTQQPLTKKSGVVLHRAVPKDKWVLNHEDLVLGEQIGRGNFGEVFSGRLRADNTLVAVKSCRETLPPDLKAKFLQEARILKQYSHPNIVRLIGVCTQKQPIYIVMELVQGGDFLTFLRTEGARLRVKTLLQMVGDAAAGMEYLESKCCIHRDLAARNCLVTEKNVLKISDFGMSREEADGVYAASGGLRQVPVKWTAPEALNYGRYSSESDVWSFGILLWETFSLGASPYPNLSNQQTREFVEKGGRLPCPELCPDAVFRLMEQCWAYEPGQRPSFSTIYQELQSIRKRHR
Sequence of MERTK (Q12866 whole entry, looked up): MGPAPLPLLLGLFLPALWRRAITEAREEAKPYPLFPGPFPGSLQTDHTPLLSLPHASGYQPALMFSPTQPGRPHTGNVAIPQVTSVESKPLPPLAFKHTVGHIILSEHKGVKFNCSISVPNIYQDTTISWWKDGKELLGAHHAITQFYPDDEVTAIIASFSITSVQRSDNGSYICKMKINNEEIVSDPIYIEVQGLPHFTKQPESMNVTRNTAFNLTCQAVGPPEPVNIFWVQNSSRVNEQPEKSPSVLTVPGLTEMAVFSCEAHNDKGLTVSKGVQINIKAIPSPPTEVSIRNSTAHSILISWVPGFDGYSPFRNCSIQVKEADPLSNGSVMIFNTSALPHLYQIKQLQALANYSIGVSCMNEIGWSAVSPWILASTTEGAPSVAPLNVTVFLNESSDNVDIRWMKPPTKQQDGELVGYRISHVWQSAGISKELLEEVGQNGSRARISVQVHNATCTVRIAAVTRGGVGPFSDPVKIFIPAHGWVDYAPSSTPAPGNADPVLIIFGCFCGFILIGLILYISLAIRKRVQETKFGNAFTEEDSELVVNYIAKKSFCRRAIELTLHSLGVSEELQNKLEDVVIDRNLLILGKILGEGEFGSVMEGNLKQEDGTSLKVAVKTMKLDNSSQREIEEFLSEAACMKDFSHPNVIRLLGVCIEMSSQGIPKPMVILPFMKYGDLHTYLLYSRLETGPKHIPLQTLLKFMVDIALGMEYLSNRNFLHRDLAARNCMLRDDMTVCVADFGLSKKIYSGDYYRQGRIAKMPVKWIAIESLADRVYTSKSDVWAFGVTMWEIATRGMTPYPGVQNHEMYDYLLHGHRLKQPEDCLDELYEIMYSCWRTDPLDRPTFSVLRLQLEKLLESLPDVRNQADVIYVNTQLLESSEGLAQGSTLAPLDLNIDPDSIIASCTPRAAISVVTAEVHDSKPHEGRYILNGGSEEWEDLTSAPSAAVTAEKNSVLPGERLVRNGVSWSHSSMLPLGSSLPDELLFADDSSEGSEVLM
Sequence of Hck (P08631 whole entry, looked up): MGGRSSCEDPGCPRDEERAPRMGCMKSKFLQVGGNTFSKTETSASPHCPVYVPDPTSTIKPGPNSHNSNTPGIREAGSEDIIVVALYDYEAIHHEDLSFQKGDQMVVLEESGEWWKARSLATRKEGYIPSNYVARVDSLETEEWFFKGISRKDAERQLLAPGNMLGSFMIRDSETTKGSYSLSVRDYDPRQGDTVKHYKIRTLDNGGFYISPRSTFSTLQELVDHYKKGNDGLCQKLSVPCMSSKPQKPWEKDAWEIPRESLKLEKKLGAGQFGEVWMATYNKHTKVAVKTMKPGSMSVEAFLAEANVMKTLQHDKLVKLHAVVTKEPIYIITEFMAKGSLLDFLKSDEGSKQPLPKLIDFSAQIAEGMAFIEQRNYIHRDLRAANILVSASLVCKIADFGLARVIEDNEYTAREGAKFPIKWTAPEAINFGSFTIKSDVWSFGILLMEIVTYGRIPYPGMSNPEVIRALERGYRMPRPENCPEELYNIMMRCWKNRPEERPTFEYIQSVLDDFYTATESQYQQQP
Sequence of FGFR1 (P11362 whole entry, looked up): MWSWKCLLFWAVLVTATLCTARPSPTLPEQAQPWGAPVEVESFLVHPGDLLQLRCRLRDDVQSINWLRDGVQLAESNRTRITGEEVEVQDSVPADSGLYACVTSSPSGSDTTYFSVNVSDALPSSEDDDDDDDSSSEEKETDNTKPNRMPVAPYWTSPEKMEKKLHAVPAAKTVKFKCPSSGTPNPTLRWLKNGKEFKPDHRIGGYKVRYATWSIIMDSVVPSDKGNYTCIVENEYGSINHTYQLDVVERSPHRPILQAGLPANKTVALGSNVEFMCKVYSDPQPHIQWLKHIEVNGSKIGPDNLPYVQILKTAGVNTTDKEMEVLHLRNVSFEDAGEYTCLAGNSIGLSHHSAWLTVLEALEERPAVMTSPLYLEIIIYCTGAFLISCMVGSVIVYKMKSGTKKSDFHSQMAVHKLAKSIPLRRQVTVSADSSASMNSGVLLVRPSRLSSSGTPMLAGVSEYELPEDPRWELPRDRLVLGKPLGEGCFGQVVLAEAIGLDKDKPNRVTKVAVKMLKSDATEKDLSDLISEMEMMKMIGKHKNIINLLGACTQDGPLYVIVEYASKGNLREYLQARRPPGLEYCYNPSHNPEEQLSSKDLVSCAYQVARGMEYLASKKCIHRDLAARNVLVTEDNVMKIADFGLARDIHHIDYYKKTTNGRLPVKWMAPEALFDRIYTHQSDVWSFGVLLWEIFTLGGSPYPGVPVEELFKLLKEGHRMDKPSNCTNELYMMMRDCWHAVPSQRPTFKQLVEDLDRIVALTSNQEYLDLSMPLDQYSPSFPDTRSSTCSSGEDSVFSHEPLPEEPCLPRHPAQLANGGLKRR
Sequence of FGFR3 (P22607 whole entry, looked up): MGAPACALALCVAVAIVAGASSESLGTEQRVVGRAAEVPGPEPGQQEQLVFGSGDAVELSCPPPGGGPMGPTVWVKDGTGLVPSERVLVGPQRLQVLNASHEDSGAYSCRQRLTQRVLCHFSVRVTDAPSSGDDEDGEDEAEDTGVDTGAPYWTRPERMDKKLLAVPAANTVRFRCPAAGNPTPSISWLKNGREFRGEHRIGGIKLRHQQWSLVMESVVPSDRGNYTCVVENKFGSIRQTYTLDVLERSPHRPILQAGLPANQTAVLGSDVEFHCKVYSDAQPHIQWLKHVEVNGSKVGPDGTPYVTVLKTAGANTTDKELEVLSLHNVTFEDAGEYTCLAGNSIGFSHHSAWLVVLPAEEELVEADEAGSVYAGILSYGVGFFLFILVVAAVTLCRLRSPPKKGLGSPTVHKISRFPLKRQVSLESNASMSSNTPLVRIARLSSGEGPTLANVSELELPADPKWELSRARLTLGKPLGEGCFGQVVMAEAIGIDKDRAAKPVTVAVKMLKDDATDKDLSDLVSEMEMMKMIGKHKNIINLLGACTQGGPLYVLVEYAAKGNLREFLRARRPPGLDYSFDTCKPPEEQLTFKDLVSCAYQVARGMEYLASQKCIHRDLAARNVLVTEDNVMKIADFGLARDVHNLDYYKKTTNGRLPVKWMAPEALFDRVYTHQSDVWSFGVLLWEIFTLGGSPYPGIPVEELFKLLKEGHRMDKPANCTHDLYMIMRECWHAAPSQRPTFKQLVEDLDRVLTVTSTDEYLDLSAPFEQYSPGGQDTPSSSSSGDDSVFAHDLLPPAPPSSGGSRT
Sequence of Fyn (P06241 whole entry, looked up): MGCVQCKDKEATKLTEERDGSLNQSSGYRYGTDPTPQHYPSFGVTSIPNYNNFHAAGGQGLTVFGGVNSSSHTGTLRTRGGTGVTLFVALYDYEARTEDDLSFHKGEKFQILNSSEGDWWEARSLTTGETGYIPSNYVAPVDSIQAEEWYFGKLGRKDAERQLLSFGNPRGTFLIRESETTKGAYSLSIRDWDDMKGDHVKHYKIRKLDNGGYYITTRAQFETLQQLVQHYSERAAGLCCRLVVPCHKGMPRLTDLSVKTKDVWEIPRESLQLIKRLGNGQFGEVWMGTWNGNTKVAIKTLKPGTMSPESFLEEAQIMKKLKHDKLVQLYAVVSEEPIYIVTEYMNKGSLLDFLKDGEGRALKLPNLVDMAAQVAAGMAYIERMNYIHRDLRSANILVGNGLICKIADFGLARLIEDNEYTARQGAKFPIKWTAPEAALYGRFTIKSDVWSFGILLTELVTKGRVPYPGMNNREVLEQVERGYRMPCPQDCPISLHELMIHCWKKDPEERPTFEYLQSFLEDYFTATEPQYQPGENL
Sequence of Grb2 SH2 (P62993 whole entry, looked up): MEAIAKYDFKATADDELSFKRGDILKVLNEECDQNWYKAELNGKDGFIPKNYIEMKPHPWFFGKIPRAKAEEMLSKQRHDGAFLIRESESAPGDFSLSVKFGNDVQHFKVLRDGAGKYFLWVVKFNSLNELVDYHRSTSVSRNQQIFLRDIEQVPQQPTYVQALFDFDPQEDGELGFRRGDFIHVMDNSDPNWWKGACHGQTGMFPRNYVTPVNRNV

Row | Sequence | phosphorylation enrichment (AncSZ) | phosphorylation enrichment (EPHB1) | phosphorylation enrichment (EPHB2) | phosphorylation enrichment (FGFR1) | phosphorylation enrichment (FGFR3) | phosphorylation enrichment (Fer (mouse)) | phosphorylation enrichment (Fes) | phosphorylation enrichment (Fyn) | phosphorylation enrichment (Hck) | phosphorylation enrichment (Jak2) | phosphorylation enrichment (MERTK) | phosphorylation enrichment (c-Abl (mouse)) | phosphorylation enrichment (c-Src) | SH2 binding enrichment (Grb2 SH2) | SH2 binding enrichment (SHP2-C SH2) | SH2 binding enrichment (c-Src SH2)
1 | FMFKVYSDPQP [FGFR1_Y280_C277Y_YF] | 1.54 | 1.08 | 0.845 | 0.572 | 1.08 | 0.679 | 1.68 | 0.596 | 0.667 | 1.49 | 0.438 | 1.16 | 0.398 | 0.693 | 0.566 | 0.49
2 | FNDSAYNQQLI [ZPLD1_Y198_T197A_YF] | 0.641 | 0.489 | 0.383 | 0.338 | 0.451 | 0.326 | 0.672 | 0.393 | 0.455 | 0.5 | 0.297 | 0.485 | 0.421 | 0.705 | 0.423 | 0.431
3 | FPCSVYMPDEW [INSR_Y1011_V1012M] | 1.19 | 0.6 | 0.644 | 0.658 | 0.712 | 0.512 | 1.06 | 0.875 | 0.596 | 1.1 | 0.559 | 0.687 | 3.15 | 1 | 0.956 | 0.989
4 | FPKARYHWLVL [APTX_Y214_YF] | 1.03 | 0.588 | 0.457 | 0.645 | 0.777 | 0.675 | 0.945 | 0.491 | 0.53 | 0.772 | 0.731 | 0.647 | 0.39 | 1.5 | 1.94 | 1.42
5 | FPQARYHWLVL [APTX_Y214_K211Q_YF] | 0.913 | 0.568 | 0.597 | 1.92 | 1.48 | 0.539 | 1.22 | 0.459 | 0.543 | 1.28 | 1.24 | 0.858 | 0.522 | 1.25 | 1.47 | 1.13
6 | FRASFYRRGDR [LTK_Y677_YF] | 0.756 | 0.543 | 0.552 | 0.549 | 0.526 | 0.456 | 0.631 | 0.617 | 0.463 | 0.583 | 0.722 | 0.634 | 0.709 | 0.542 | 0.471 | 0.379
7 | FRVAGYETQGG [TIA1_Y383_YF] | 0.68 | 0.428 | 0.41 | 0.449 | 0.553 | 0.43 | 0.897 | 0.409 | 0.46 | 0.722 | 0.437 | 0.64 | 0.463 | 0.822 | 0.745 | 0.466
8 | FSAGTYPRLEE [SYCN_Y108] | 0.765 | 0.493 | 0.464 | 0.464 | 0.659 | 0.464 | 0.918 | 0.41 | 0.406 | 0.828 | 0.372 | 0.672 | 0.392 | 0.783 | 0.612 | 1.18
9 | FSCLPCGRLAF [SLC52A2_Y305_Y305C_YF] | 0.752 | 0.442 | 0.404 | 0.657 | 0.542 | 0.423 | 0.868 | 0.354 | 0.389 | 0.67 | 0.532 | 0.55 | 0.33 | 1.36 | 1.38 | 1.62
10 | FSCLPYGRLAF [SLC52A2_Y305_YF] | 0.935 | 0.352 | 0.55 | 0.71 | 0.649 | 0.559 | 1.01 | 0.629 | 0.936 | 1.03 | 0.56 | 0.882 | 2.36 | 0.793 | 0.538 | 0.777
11 | FSCLPYGRLAY [SLC52A2_Y305] | 1.01 | 0.559 | 0.513 | 0.463 | 0.641 | 0.619 | 0.98 | 0.618 | 0.894 | 0.782 | 0.393 | 0.595 | 1.84 | 0.804 | 0.465 | 0.455
12 | FSEVRYVKEPY [HIPK4_Y170] | 0.9 | 0.474 | 0.449 | 0.668 | 0.538 | 0.404 | 1.06 | 0.372 | 0.388 | 1.06 | 0.371 | 0.783 | 0.392 | 0.908 | 0.52 | 0.624
13 | FSGLAYTMERS [GLUD1_Y512_H507Y_YF] | 0.822 | 0.492 | 0.465 | 0.455 | 0.63 | 0.361 | 0.858 | 0.544 | 0.486 | 0.7 | 0.364 | 0.613 | 0.935 | 0.856 | 0.838 | 0.5
14 | FSKRIYKGMVA [PCDH15_Y931] | 0.426 | 0.231 | 0.5 | 0.262 | 0.367 | 0.369 | 0.534 | 0.392 | 0.352 | 0.402 | 0.362 | 0.332 | 0.338 | 0.773 | 0.555 | 0.462
15 | FSVDSYDSSVR [KCNQ1_Y461_G460S] | 0.734 | 0.451 | 0.87 | 0.44 | 0.548 | 0.498 | 1.39 | 0.474 | 0.47 | 0.693 | 0.406 | 0.523 | 0.474 | 1.02 | 0.865 | 0.718
16 | FTGNTYRVGDT [FN1_Y106_YF] | 0.634 | 0.382 | 0.464 | 0.372 | 0.472 | 0.396 | 0.667 | 0.424 | 0.293 | 0.499 | 0.394 | 0.479 | 0.476 | 0.893 | 0.853 | 0.479
17 | FTGVEYSSCDT [EPHA3_Y937] | 1.12 | 0.629 | 0.637 | 0.478 | 0.721 | 0.491 | 1.12 | 0.524 | 0.545 | 0.905 | 0.419 | 0.755 | 0.555 | 0.832 | 1.14 | 1.92

Row | Sequence | phosphorylation enrichment (AncSZ) | phosphorylation enrichment (EPHB1) | phosphorylation enrichment (EPHB2) | phosphorylation enrichment (FGFR1) | phosphorylation enrichment (FGFR3) | phosphorylation enrichment (Fer (mouse)) | phosphorylation enrichment (Fes) | phosphorylation enrichment (Fyn) | phosphorylation enrichment (Hck) | phosphorylation enrichment (Jak2) | phosphorylation enrichment (MERTK) | phosphorylation enrichment (c-Abl (mouse)) | phosphorylation enrichment (c-Src) | SH2 binding enrichment (Grb2 SH2) | SH2 binding enrichment (SHP2-C SH2) | SH2 binding enrichment (c-Src SH2)
18 | FTRNYYVWAVL [CYBA_Y88_R90W] | 1.6 | 3.79 | 1.55 | 6.92 | 5.58 | 1.42 | 1.7 | 0.858 | 0.75 | 1.84 | 3.54 | 12 | 0.506 | 1.04 | 1.11 | 0.581
19 | FYDANYDGKEY [MAPRE2_Y162] | 1.22 | 0.63 | 1.23 | 0.699 | 0.796 | 0.627 | 1.37 | 0.642 | 0.83 | 1.14 | 1.17 | 0.712 | 0.941 | 0.823 | 0.473 | 0.725
20 | FYVVRYCWLRR [MPZ_Y181] | 0.869 | 0.496 | 0.508 | 0.595 | 0.614 | 0.51 | 0.747 | 0.62 | 0.567 | 0.596 | 0.604 | 0.758 | 0.612 | 0.761 | 0.565 | 0.545
21 | GDDLSYGDVPP [IRS1_Y151_E147D] | 1.11 | 0.543 | 0.588 | 0.479 | 0.576 | 0.61 | 1.24 | 0.426 | 0.535 | 1.04 | 0.413 | 0.751 | 0.63 | 0.752 | 0.549 | 0.573
22 | GDFLSYREFHS [ERBIN_Y1107_YF] | 0.625 | 0.386 | 0.469 | 0.432 | 0.567 | 0.489 | 0.686 | 0.348 | 0.385 | 0.557 | 0.359 | 0.534 | 0.423 | 0.741 | 0.639 | 0.49
23 | GESKDYALHAG [SVIL_Y185_V189A] | 0.548 | 0.479 | 0.527 | 0.365 | 0.455 | 0.366 | 0.566 | 0.421 | 0.38 | 0.493 | 0.36 | 0.488 | 0.413 | 0.78 | 0.739 | 0.521
24 | GGFTCCCDGKK [PROS1_Y266_Y266C_YF] | 1.12 | 0.736 | 0.659 | 0.509 | 0.755 | 0.542 | 1.34 | 0.463 | 0.504 | 1.16 | 0.468 | 0.977 | 0.546 | 0.787 | 0.62 | 0.451
25 | GGPAEYLRRAS [PKLR_Y38_G37E] | 0.954 | 0.41 | 0.334 | 0.363 | 0.415 | 0.367 | 0.76 | 0.427 | 0.374 | 0.508 | 0.361 | 0.675 | 0.285 | 0.743 | 0.647 | 0.355
26 | GGTPLYRDRQG [AGXT_Y194_M195R] | 0.652 | 0.383 | 0.435 | 0.44 | 0.423 | 0.415 | 0.499 | 0.378 | 0.398 | 0.4 | 0.364 | 0.5 | 0.358 | 0.87 | 0.78 | 0.389
27 | GGYTWYCDGKK [PROS1_Y266_C265W] | 1.1 | 0.641 | 0.537 | 0.455 | 0.795 | 0.524 | 1.24 | 0.362 | 0.414 | 1.47 | 0.359 | 0.882 | 0.399 | 0.667 | 0.524 | 0.455
28 | GHGEEYPAAGA [NOTCH3_Y2221] | 0.682 | 0.41 | 0.327 | 0.413 | 0.719 | 0.433 | 0.821 | 0.426 | 0.431 | 0.549 | 0.379 | 0.469 | 0.377 | 0.888 | 0.626 | 0.384
29 | GITVAYTIPKK [UBA5_Y372] | 0.763 | 0.441 | 0.331 | 0.337 | 0.534 | 0.384 | 0.739 | 0.475 | 0.317 | 0.669 | 0.528 | 0.702 | 0.396 | 0.71 | 1.26 | 0.835
30 | GKAFIYASHIV [ZNF573_Y229] | 0.802 | 0.557 | 0.42 | 0.427 | 0.602 | 1.16 | 1 | 0.666 | 0.604 | 0.869 | 0.408 | 0.996 | 1.21 | 0.76 | 0.697 | 0.65
31 | GKGGSYSQAAC [HLA-B_Y344] | 0.452 | 0.352 | 0.365 | 0.385 | 0.444 | 0.408 | 0.649 | 0.342 | 0.419 | 0.569 | 0.377 | 0.625 | 0.396 | 0.971 | 0.881 | 0.746
32 | GKTFTYRSVFF [ZNF80_Y200] | 0.809 | 0.464 | 0.466 | 0.388 | 0.562 | 0.457 | 0.951 | 0.43 | 0.374 | 0.744 | 0.42 | 0.693 | 0.412 | 0.878 | 0.965 | 0.575
33 | GLAELYEYKKK [CKAP5_Y1854] | 0.671 | 0.479 | 0.397 | 0.7 | 0.546 | 0.32 | 0.719 | 0.569 | 0.924 | 0.393 | 0.303 | 0.464 | 0.489 | 1.26 | 1.31 | 0.671
